Target: T1, Human CRP (Novagen) (human, UniProt P02741 19-224)
T1 construct: also called C-reactive protein
T1 sequence (looked up): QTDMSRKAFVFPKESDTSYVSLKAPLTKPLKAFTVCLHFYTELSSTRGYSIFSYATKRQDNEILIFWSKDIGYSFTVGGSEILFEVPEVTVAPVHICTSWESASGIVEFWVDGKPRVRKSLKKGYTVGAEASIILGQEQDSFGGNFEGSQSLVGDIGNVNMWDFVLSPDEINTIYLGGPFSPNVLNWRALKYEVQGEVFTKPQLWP
Test: Bead Blot of library beads loaded from CRP-spiked whole blood, detected with an anti-CRP antibody, confirmed by re-incubation

GNQKWG (also called CRP ligand): binds.

— patent US20070015230A1 (AMERICAN NATIONAL RED CROSS, published 2007)
